Article PMC10662374, “Structures of the interleukin 11 signalling complex reveal gp130 dynamics and the inhibitory mechanism of a cytokine variant” (Nature Communications, 2023)

Columns and labels:
gp130EC = target: T1, gp130EC (human, UniProt P40189 23-619, N-linked glycans (N21, N61, N135 seen in the structures)); experiment: cryo-EM structure; IL-11Δ10/IL-11Rα_(D1-D3)/gp130EC complex, 1.5 mg/mL, with 1–2 mM n-dodecyl β-D-maltoside, not size exclusion purified; C2 symmetry, 3.8 Å; conditions: both partners purified
T1 construct: Secreted with a honeybee-melittin signal peptide; D5-D6 are not in the deposited model 8DPT; also called complete extracellular domains of gp130; D1-D6 domains of gp130; not shown: His8, N-terminal, cleaved
T1 sequence (looked up): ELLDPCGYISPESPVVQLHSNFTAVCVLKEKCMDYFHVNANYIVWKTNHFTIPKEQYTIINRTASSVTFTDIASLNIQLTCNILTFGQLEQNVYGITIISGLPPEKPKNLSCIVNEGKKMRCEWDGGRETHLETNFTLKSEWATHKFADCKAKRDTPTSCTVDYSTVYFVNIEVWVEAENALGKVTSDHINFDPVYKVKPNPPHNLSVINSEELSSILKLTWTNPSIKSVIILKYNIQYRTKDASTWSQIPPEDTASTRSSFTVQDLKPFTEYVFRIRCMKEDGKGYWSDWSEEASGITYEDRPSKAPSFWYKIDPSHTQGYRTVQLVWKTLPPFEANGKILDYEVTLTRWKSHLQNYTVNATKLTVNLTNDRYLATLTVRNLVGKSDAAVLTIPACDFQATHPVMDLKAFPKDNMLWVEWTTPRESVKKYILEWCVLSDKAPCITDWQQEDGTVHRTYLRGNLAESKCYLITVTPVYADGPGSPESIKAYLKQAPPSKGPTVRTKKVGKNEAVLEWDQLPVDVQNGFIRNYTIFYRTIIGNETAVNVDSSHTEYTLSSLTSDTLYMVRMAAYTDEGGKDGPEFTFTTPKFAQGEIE

[1] = target: T2, IL-11Δ10/IL-11Rα_(D1-D3) binary complex (human, UniProt P20809 32-199; Q14626 23-319); experiment: ITC; gp130 in the syringe titrated against the cytokine/IL-11Rα_(D1-D3) complex formed in the cell, 288 K, TBS pH 8.5, 1:1 interaction model, n = 3; conditions: both partners purified
T2 construct: IL-11, human, IL-11Δ10, as m1; numbers count on: the mature protein; IL-11Rα, human, D1-D3, as m8; m1 with m8; also called IL-11Rα_(D1-D3)/IL-11Δ10 binary complex; binary IL-11/IL-11Rα complex; source: formed from the purified proteins (IL-11Δ10 from E. coli, IL-11Rα_(D1-D3) from Sf21); in ITC by titrating the cytokine into IL-11Rα; not shown: His6, N-terminal, cleaved; His8, N-terminal, cleaved; …
T2 sequence 1: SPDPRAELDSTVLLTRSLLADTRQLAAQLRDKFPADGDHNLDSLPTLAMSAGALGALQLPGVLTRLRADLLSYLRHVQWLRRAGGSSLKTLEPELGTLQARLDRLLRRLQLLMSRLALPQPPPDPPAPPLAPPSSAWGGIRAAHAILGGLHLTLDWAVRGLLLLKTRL
T2 sequence 2: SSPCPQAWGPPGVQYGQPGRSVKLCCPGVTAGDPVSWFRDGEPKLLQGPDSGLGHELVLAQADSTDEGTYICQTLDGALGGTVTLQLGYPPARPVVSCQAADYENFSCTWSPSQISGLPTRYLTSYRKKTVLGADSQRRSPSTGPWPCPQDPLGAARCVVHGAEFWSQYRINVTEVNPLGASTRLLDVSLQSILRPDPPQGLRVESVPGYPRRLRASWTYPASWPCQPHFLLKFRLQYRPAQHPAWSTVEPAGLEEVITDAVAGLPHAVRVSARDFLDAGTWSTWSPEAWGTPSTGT

[2] = target: T3, IL-11_(Δ10/Mutein)/IL-11Rα_(D1-D3) binary complex (human, UniProt P20809 32-199; Q14626 23-319, W147A | ^58AMSAG^62 to ^58PAIDY^62); experiment: as above; conditions: both partners purified
T3 construct: IL-11, human, IL-11Δ10 with W147A and 58-62 AMSAG to PAIDY, as m4; numbers count on: the mature protein; IL-11Rα, human, D1-D3, as m8; m4 with m8; source: formed from the purified proteins; in ITC by titrating the cytokine into IL-11Rα; not shown: His6, N-terminal, cleaved; His8, N-terminal, cleaved
T3 sequence 1: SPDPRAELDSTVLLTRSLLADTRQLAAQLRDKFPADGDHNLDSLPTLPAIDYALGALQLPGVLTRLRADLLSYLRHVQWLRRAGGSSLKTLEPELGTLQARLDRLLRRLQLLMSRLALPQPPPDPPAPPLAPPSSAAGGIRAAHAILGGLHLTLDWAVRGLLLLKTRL
T3 sequence 2: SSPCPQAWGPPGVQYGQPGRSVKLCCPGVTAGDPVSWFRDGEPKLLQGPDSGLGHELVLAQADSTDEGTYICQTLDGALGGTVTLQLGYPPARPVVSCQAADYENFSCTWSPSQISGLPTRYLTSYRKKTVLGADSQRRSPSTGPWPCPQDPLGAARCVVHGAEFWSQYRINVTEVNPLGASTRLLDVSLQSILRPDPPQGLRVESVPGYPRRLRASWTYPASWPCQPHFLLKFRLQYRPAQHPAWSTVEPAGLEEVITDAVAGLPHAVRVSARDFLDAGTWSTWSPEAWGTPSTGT

[3] = target: IL-11_(Δ10/PAIDY)/IL-11Rα_(D1-D3) binary complex (human) (UniProt P20809); experiment: as above

B1: IL-11Δ10 (ligand, human)
chain: SPDPRAELDSTVLLTRSLLADTRQLAAQLRDKFPADGDHNLDSLPTLAMSAGALGALQLPGVLTRLRADLLSYLRHVQWLRRAGGSSLKTLEPELGTLQARLDRLLRRLQLLMSRLALPQPPPDPPAPPLAPPSSAWGGIRAAHAILGGLHLTLDWAVRGLLLLKTRL
notes: numbers count on: the mature protein; also called N-terminally truncated form of IL-11; WT IL-11Δ10; not shown: His6, N-terminal, cleaved
gp130EC
  binding result: binds

B2: gp130_(D1-D3) (receptor, human)
chain: GELLDPCGYISPESPVVQLHSNFTAVCVLKEKCMDYFHVNANYIVWKTNHFTIPKEQYTIINRTASSVTFTDIASLNIQLTCNILTFGQLEQNVYGITIISGLPPEKPKNLSCIVNEGKKMRCEWDGGRETHLETNFTLKSEWATHKFADCKAKRDTPTSCTVDYSTVYFVNIEVWVEAENALGKVTSDHINFDPVYKVKPNPPHNLSVINSEELSSILKLTWTNPSIKSVIILKYNIQYRTKDASTWSQIPPEDTASTRSSFTVQDLKPFTEYVFRIRCMKEDGKGYWSDWSEEASGITYEDR
modifications: N-linked glycans (N21, N61, N135 seen in the structures)
notes: glycoprotein 130 (gp130), human, domains D1-D3; Secreted with a honeybee-melittin signal peptide; not shown: His8, N-terminal, cleaved
[1]
  Kd: 3 nM
  dH: -8.13 kcal/mol
[2]
  Kd: 55 nM
[3]
  Kd: 20 nM
